{"source": "patent US10864251B2", "about": "“Peptides of syndecan-1 for inhibiting angiogenesis” (Wisconsin Alumni Research Foundation, priority 2006, dated 2020)", "key": {"[1]": {"tested_on": "MDA-MB-231 human mammary carcinoma cells", "details": "MDA-MB-231 on vitronectin; shown previously (Beauvais et al., 2004); read-out: IC50, block of cell spreading on VN; cited from earlier work"}, "[2]": {"tested_on": "mouse aortic endothelial cells", "experiment": "Cell spreading on VN, mouse aortic endothelial cells", "type": "cell-based", "details": "1 μM competitor", "description": "FIGS. 10A-10D—Dependence of HMEC cell attachment and spreading on integrin activation by Sdc1 and its inhibition by SSTN. (FIG. 10A) HMECs were plated for 2 hr either on Sdc1-specific antibody B-B4 to engage Sdc1 or on VN (10 μg/ml coating concentration) to engage the αvβ3 and αvβ5 integrins. Blocking antibodies LM609 (10 μg/ml, specific for αvβ3) and P1F6 (10 μg/ml, specific for αvβ5), SSTN (0.5 μM) or recombinant mouse Sdc1 ectodomain (mS1ED, 5 μM) were added. The ligand mimetic antibody WOW1 was used to detect activated αvβ3 integrin on cells plated on B-B4. (FIG. 10B) HMECs were treated with siRNA oligo specific for human Sdc1 for 48 hr prior to plating on VN. Sdc1 expression was quantified by flow cytometry using human Sdc1-specific mAb B-B4 or a control mouse IgG. (FIG. 10C-10D) The percentage of cell attaching or attaching and spreading was quantified for HMECs, HAEC and MAECs plated on VN for 24 hr in the presence of mS1ED or SSTN, or after siRNA silencing of Sdc1 expression in the presence of mAb LM609 to block αvβ3 integrin, P1F6 to block αvβ5 integrin, or both antibodies.\nThe next test was whether agents that target Sdc1, especially competition with recombinant S1ED, will block the activity of these two integrins and thus block their interaction with VN. […]"}}, "data": [{"molecule": "S1ED: recombinant mouse Sdc1 ectodomain (amino acids 18-251), expressed in bacteria as GST fusion or 6×His-tagged protein (protein, left off: a dimerising Fc or GST, recombinant mouse Sdc1 ectodomain (amino acids 18-251), expressed in bacteria as GST fusion or 6×His-tagged protein) QPALPQIVAVNVPPEDQDGSGDDSDNFSGSGTGALPDTLSRQTPSTWKDVWLLTATPTAPEPTSSNTETAFTSVLPAGEKPEEGEPVLHVEAEPGFTARDKEKEVTTRPRETVQLPITQRASTVRVTTAQAAVTSHPHGGMQPGLHETSAPTAPGQPDHQPPRVEGGGTSVIKEVVEDGTANQLPAGEGSGEQDFTFETSGENTAVAAVEPGLRNQPPVDEGATGASQSLLDRK", "values": [{"measurement": "IC50", "setting": "[1]", "result": "3 to 10", "unit": "µM"}, {"measurement": "spreading on VN", "setting": "[2]", "result": "blocked"}]}]}
